In patent publication US20030091557:

Test system: ACE-2 inhibitor peptide (the most active ACE-2 inhibitor peptide)

Row | Substance | hydrolysis of the substrate hip-his-leu (250 mM) by ACE (1.5 nM) | conversion of angiotensin I to A1-9 by ACE-2
1 | Angiotensin converting enzyme (ACE) | the inhibitor did not affect the hydrolysis of the substrate, hip-his-leu (250 mM) by ACE (1.5 nM), even at 25 mM | –
2 | recombinant human ACE-2 | – | This peptide also inhibited conversion of angiotensin I to A1-9 by ACE-2
